Patent publication US12122830 (ABL BIO, dated 2024)

Experiments:
[1] = biological target: T1, recombinant mouse ROR1 protein (Acrobiosystems, RO1-M5221) (mouse, UniProt Q9Z139 30-406); assay: ELISA, recombinant mouse ROR1 protein coated at 1 µg/ml, IgG titrated, HRP anti-Fab detection
T1 construct: extracellular domain; Bought; also called mouse ROR1 antigen
Procedure: The anti-ROR1 antibody-antigen binding affinity was estimated by using an ELISA-based solution binding test. Specifically, a 96-well microtiter plate (Nunc-Immuno Plates, NUNC) was coated with the ROR1 protein at a concentration of 1 µg/ml in a PBS solution as described below at 4° C. for 16 hours, and non-specific binding sites were blocked with 3% BSA (bovine serum albumin) for 2 hours. For this, as the ROR1 protein, in case of human ROR1, ROR1-Fc of Example 1 or recombinant ROR1-His (Sino Biological, 13968-H08H) was used. The ROR1-His used for ELISA was a protein of sino biological company (13968-H08H) as described in the above sentence, and ROR1-His of Example 1 or recombinant mouse ROR1 protein was used (Acrobiosystems, RO1-M5221-100 µg).
Then, after adding the anti-ROR1 antibody prepared in Example 3 at the concentration described in FIG. 2 into the microtiter plate on a 96-well microtiter plate, the binding capacity was analyzed with ELISA as follows. Specifically, after constant temperature treatment for 2 hours, the plate was washed with PBS comprising 0.05% tween 20 5 times, and then a HRP-conjugated Fab multiclonal antibody reagent (Pierce, 31414) was diluted at 1:10,000 ratio, and was put into the washed microtiter plate, and it was incubated at 37° C. for 1 hour, and the ROR1 antibody bound to the plate was detected. After reaction, it was color-developed by using TMB (Tetramethylbenzidine, Sigma, T0440). The enzymatic reaction was stopped by 0.5 mol/L of sulfuric acid, and the absorbances at 450 nm and 650 nm were measured by using a micro plate reader device (molecular device) (450 nm-650 nm).

[2] = biological target: T2, mouse ROR1 expressed on the cell surface (CHO-mouse ROR1) (mouse, UniProt Q9Z139 30-937); assay: flow cytometry on CHO cells transiently overexpressing mouse ROR1, FITC anti-human Fc detection, MFI ratio to 2nd Ab
T2 construct: whole, on cells; Temporarily transfected CHO cells
T2 sequence (Q9Z139 30-937): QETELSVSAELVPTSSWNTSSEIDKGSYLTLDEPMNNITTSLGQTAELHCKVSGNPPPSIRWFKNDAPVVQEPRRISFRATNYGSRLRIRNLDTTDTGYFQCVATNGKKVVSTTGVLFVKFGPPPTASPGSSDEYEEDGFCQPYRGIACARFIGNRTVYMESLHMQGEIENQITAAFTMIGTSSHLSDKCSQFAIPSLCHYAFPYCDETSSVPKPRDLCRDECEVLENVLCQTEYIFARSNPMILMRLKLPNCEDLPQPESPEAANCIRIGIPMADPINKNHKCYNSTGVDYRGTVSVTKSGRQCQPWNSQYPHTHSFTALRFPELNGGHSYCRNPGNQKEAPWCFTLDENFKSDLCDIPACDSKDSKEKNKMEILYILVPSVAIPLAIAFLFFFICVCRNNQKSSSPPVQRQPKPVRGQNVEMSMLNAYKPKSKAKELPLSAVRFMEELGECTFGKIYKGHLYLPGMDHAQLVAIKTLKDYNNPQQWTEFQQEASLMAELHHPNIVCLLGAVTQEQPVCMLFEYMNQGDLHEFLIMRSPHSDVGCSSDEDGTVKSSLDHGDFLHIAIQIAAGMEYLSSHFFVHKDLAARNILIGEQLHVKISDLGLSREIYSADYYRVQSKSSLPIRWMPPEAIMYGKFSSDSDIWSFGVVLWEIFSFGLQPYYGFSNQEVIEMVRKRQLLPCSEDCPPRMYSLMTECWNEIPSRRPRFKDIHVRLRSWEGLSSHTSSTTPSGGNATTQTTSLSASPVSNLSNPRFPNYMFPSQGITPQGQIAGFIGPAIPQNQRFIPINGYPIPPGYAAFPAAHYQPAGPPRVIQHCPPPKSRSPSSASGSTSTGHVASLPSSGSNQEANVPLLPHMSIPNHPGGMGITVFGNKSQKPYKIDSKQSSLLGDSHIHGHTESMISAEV
Procedure: For this experiment, the degree of binding of the anti-ROR1 antibody and ROR1 was measured by using FACSCalibur (BD Biosciences) device with the cell lines as follows, the cell lines artificially overexpressing the ROR1 protein by transfecting an ROR1 gene temporarily (CHO-human ROR1, CHO-human ROR2, CHO-mouse ROR1) or stably (MC38-human ROR1) (FIG. 5 and FIG. 7, respectively) or the cell lines expressing ROR1 (JeKo-1, Mino) (FIG. 6) or a cell line not expressing ROR1 (MCF7) (FIG. 6). […] JeKo-1, Mino, CHO-human ROR1, CHO-mouse ROR1 and MC38-human ROR1 are all cell lines expressing human ROR1 or mouse ROR1.
Specifically, after disassociating each cell line and washing in PBS, the number of cells was counted and set as 2×10^5 cells/200 µl PBS, and then each ROR1 monoclonal antibody in Example 3 was prepared in 10 µg/mL or as 5 fold-diluted from 10 µg/mL, and was reacted at 4° C. for 1 hour. After reaction, cells were washed in PBS and then the FITC-labeled constant region (Fc)-specific antibody (Goat anti-human IgG FITC conjugate, Fc specific, Sigma, F9512, concentration: 2.0 mg/ml) was suspended in 2 µl/1×10^5 cells/200 µl PBS, and it was reacted at 4° C. for 1 hours. The confirmation of expression degree of human ROR1, human ROR2 and mouse ROR1 that were temporarily overexpressed was analyzed by using a commercially available antibody for FACS analysis (anti-ROR1: R&D Systems, FAB2000G, anti-ROR2: R&D, FAB20641P). After reaction, cells were washed in PBS and decoded by using a FACSCalibur device. The negative control group (2nd Ab) was treated only with the FITC-labeled constant region (Fc)-specific antibody. The result for the peak shift in the experimental group treated with each ROR1 monoclonal antibody was compared to the result for the shift in the control group (Mean Fluorescence Intensity Ratio, MFI Ratio: MFI of anti-ROR1/MFI of 2nd Ab).

T1 sequence (Q9Z139 30-406): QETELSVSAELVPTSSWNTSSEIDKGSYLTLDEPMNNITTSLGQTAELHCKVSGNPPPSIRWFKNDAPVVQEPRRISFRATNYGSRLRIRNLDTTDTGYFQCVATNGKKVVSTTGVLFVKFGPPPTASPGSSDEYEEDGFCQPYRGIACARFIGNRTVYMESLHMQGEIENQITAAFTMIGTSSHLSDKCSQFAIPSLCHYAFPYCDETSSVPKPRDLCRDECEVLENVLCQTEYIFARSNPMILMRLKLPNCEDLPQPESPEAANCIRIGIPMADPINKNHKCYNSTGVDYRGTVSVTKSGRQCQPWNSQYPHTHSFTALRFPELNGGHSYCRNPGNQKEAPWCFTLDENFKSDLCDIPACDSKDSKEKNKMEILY

| binding result [1] | binding result [2] | Binder |
| --- | --- | --- |
| binds | binds | A2F2 anti-ROR1 IgG antibody (antibody, V domains shown) VH: EVQLLESGGGLVQPGGSLRLSCAASGFTFSDYYMSWVRQAPGKGLEWVSSISPDGSNTYYADSVKGRFTISRDNSKNTLYLQMNSLRAEDTAVYYCAKNLRAFDYWGQGTLVTVSS VL: QSVLTQPPPASGTPGQRVTISCSGSSSNIGSNTVYWYQQLPGTAPKLLIYANSQRPSGVPDRFSGSKSGTSASLAISGLRSEDEADYYCGSWDYSLSGYVFGGGTKLTVLG |
| binds | binds | D2B12 anti-ROR1 IgG antibody (antibody, V domains shown) VH: EVQLLESGGGLVQPGGSLRLSCAASGFTFSNYDMSWVRQAPGKGLEWVSSISPSSGSSIYYADSVKGRFTISRDNSKNTLYLQMNSLRAEDTAVYYCAKAPGWCQAPSCYYDNAMDVWGQGTLVTVSS VL: QSVLTQPPSASGTPGQRVTISCSGSSSNIGNNDVSWYQQLPGTAPKLLIYDDSQRPSGVPDRFSGSKSGTSASLAISGLRSEDEADYYCGAWDDSLSGYVFGGGTKLTVLG |
| binds | binds | A2F3 anti-ROR1 IgG antibody (antibody, V domains shown) VH: EVQLLESGGGLVQPGGSLRLSCAASGFTFSSYDMSWVRQAPGKGLEWVSWISPGGGSKYYADSVKGRFTISRDNSKNTLYLQMNSLRAEDTAVYYCARVNGRFDYWGQGTLVTVSS VL: QSVLTQPPSASGTPGQRVTISCSGSSSNIGNNNVSWYQQLPGTAPKLLIYADSHRPSGVPDRFSGSKSGTSASLAISGLRSEDEADYYCATWDYSLSGYVFGGGTKLTVLG |
